Assays:
LRS = target: T1, LRS (human, UniProt Q9P2J5 1-1176); assay: FLAG co-immunoprecipitation from HEK293T lysates, western blot
T1 construct: Endogenous protein probed in the co-immunoprecipitate; also called Leucyl tRNA synthetase

p62 = target: T2, p62 (human, UniProt Q13501 2-440); assay: FLAG co-immunoprecipitation from cross-linked HEK293T lysates, western blot (FIG. 6C)
T2 construct: Endogenous protein probed with anti-p62 from BD Transduction Laboratories
Protocol: (§1) HEK293T cells were transfected with either MORTOR-3×FLAG or FLAG alone for 22 or 42 hours later. Cells were then starved of amino acids and serum for 4 hours and re-stimulated with amino acids for 5 minutes or left untreated. Cells were cross-linked and harvested and FLAG immunoprecipitation was used to test for interactions with endogenous proteins. […] HEK293T cells were transfected with either MORTOR-3×FLAG, MORTOR-1×FLAG (CMV), or FLAG only and treated as in FIG. 6A.
(§2) One day before transfection, 2,000,000 HEK293T cells were plated in 10 cm culture dishes. The cells were transfected with 2 μg of cDNA expression vectors using Lipofectamine 2000 (Life Technologies). Four hours after transfection, the cells were washed and incubated in DMEM with 10% FBS without antibiotics for 18 hours. When amino acid sensitivity was investigated, cells were transfected for 18 or 38 hours followed by 4 hours of amino acid starvation. The cells were then stimulated with amino acid for 7 minutes. The cells were incubated in Triton X-100 lysis buffer (1% Triton X-100, 40 mM HEPES pH 7.4, 2 mM EDTA, 200 mM NaCl, phosSTOP and protease inhibitor cocktail (Roche)) for 1 hour, followed by sonication at 4° C. For in-cell crosslinking experiments, DSP was used as previously described (Sancak, Y., et al. (2008) “The Rag GTPases Bind Raptor and Mediate Amino Acid Signaling to MTORC1,” Science, 320:1496-1501) prior to cell lysis. The lysates were centrifuged at 20,000×g for 30 minutes. For immunoprecipitation, primary antibodies were cross-linked to Protein G beads (Life technologies) using DMP (Thermo scientific). For anti-FLAG-immunoprecipitation, the FLAG-M2 affinity gel (Life technologies) was used. The cleared lysates were incubated with the beads at 4° C. for 2 hours or overnight. The beads were washed five times with ice-cold lysis buffer. Immunoprecipitated proteins were denatured in the SDS sample buffer and separated by SDS-PAGE. The intensity of bands were quantified using ImageJ (NIH).

ATP6V1A = target: T3, ATP6V1A (human, UniProt P38606 1-617); assay: as above
T3 construct: Endogenous protein probed in the co-immunoprecipitate
Protocol: as §1, §2

Rictor = target: T4, Rictor (human, UniProt Q6R327 1-1708); assay: as above
T4 construct: Endogenous protein probed in the co-immunoprecipitate
Protocol: as §1, §2

Measured: binding result

T1 sequence (Q9P2J5 whole entry): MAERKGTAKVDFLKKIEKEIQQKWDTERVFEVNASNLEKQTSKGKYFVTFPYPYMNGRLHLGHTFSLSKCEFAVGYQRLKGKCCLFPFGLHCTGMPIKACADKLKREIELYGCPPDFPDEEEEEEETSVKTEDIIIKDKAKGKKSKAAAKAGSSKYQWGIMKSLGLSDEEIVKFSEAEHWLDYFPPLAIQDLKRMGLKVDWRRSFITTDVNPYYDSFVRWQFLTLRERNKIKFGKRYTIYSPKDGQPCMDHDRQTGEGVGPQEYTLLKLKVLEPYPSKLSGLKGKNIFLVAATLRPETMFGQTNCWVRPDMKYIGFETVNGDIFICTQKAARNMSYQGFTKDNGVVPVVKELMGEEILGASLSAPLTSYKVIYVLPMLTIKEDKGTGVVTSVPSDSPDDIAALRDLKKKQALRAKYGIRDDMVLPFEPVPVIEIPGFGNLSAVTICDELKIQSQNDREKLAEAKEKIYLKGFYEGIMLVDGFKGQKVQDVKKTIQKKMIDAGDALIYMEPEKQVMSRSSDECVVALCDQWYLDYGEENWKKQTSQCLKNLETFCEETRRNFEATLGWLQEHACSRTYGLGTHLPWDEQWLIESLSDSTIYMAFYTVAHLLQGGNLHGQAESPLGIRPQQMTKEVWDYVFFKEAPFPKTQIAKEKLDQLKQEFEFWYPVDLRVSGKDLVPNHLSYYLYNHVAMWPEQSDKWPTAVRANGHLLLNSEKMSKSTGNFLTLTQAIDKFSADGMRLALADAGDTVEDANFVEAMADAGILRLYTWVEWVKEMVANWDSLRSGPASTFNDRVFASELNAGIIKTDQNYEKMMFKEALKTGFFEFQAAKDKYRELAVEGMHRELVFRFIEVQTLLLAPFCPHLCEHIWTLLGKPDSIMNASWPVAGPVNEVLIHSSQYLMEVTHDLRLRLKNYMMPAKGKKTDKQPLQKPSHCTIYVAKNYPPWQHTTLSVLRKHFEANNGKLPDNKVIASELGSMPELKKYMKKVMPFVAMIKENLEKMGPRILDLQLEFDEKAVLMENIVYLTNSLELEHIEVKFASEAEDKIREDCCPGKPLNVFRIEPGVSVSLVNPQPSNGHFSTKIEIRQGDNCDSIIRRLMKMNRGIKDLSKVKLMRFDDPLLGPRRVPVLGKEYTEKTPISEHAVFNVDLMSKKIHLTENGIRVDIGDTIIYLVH
T3 sequence (P38606 whole entry): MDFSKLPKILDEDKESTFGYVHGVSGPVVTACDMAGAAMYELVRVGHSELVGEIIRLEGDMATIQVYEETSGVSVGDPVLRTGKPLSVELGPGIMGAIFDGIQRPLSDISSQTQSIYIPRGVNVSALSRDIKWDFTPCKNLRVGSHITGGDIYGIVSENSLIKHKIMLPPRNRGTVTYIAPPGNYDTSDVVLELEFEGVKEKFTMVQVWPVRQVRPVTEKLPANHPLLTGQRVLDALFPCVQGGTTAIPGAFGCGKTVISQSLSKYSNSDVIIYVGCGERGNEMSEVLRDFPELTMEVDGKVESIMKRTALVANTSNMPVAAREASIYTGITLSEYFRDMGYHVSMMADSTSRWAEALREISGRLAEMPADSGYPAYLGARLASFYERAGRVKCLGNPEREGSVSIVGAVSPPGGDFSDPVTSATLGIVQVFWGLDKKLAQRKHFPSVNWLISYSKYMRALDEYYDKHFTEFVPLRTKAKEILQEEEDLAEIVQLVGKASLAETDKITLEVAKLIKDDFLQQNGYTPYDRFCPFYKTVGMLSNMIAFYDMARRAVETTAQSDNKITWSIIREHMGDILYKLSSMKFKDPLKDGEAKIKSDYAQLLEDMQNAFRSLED
T4 sequence (Q6R327 whole entry): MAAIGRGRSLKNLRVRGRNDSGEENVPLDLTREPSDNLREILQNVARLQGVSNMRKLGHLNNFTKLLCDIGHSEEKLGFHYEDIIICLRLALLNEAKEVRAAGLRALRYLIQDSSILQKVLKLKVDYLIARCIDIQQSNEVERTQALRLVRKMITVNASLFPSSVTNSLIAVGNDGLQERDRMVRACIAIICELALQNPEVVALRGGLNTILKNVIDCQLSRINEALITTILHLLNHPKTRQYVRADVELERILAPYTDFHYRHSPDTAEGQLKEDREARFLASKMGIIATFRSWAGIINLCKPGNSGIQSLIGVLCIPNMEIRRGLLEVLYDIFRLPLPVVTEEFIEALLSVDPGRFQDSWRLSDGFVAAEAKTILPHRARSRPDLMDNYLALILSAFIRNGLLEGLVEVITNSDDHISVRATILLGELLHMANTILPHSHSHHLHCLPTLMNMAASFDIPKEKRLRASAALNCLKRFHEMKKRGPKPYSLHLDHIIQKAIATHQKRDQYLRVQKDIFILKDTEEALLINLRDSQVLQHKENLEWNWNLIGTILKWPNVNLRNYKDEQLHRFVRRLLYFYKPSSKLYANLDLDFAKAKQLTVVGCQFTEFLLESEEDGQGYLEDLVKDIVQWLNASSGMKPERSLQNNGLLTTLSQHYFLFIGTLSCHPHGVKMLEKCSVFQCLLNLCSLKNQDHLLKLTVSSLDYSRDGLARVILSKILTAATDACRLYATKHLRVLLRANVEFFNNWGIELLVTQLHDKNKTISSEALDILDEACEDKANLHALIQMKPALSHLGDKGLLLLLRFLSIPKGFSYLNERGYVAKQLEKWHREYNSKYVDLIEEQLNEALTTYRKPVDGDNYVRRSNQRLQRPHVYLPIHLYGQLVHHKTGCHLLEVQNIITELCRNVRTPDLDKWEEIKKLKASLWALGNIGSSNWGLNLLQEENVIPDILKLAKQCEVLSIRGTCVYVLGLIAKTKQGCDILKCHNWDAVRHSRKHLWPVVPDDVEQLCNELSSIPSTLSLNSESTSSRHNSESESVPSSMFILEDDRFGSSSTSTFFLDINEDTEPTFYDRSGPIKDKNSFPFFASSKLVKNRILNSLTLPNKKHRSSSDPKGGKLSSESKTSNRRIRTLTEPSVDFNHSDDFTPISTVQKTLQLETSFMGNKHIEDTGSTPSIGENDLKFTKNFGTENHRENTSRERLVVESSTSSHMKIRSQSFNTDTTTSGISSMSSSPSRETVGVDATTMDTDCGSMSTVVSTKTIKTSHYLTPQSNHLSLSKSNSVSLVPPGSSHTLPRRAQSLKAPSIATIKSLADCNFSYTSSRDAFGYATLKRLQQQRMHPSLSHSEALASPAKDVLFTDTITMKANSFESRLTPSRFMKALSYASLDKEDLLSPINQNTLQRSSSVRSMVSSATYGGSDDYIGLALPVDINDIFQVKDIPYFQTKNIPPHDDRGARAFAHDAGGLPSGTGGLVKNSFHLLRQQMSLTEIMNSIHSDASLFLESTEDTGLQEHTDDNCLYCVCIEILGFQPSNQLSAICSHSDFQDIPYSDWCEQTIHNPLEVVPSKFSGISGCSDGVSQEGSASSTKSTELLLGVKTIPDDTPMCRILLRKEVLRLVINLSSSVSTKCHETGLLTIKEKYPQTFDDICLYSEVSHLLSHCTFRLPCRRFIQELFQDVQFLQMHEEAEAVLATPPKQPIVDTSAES

B1: MORTOR-3×FLAG (receptor)
chain: MRPERPRPRGSAPGPMETPPWDPARNDSLPPTLTPAVPPYVKLGLTVVYTVFYALLFVFIYVQLWLVLRYRHKRLSYQSVFLFLCLFWASLRTVLFSFYFKDFVAANSLSPFVFWLLYCFPVCLQFFTLTLMNLYFTQVIFKAKSKYSPELLKYRLPLYLASLFISLVFLLVNLTCAVLVKTGNWERKVIVSVRVAINDTLFVLCAVSLSICLYKISKMSLANIYLESKGSSVCQVTAIGVTVILLYTSRACYNLFILSFSQNKSVHSFDYDWYNVSDQADLKNQLGDAGYVLFGVVLFVWELLPTTLVVYFFRVRNPTKDLTNPGMVPSHGFSPRSYFFDNPRRYDSDDDLAWNIAPQGLQGGFAPDYYDWGQQTNSFLAQAGTLQDSTLDPDKPSLG
notes: Expressed from pBMN-GPR137b-3×FLAG in HEK293T or HeLa cells and immunoprecipitated from lysates on FLAG-M2 gel; also called GPR137b-3×FLAG; MORTOR-FLAG; not shown: 3×FLAG tag
no binding: all assays above
